The target of the assay is T1, Ang2 (UniProt O15123 19-496).
T1 sequence: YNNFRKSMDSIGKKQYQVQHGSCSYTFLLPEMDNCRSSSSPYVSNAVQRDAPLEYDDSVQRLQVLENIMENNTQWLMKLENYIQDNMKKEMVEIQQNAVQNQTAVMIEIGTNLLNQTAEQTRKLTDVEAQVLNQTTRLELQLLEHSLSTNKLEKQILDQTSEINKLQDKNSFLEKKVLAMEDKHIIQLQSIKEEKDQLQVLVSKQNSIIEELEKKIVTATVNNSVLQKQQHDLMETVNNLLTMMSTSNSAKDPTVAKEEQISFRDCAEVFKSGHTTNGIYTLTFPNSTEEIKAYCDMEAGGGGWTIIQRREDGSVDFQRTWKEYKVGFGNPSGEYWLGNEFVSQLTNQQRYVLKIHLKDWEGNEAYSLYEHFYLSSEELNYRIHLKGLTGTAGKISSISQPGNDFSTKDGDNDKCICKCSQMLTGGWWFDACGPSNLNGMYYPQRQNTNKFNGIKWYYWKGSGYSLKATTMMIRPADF
The assay is described as follows: SPR. (Surface plasmon resonance follows binding to a sensor surface in real time, without labels.)

B1: MBP-a1 (designed binder)
chain: LWDDCYFFPNPPHCYNSP
The term Kd denotes the concentration at which binding is half-saturated. A lower Kd goes with higher affinity. On to B1, for which binding was characterised by a dissociation constant (Kd) of 22.2 ± 0.08 nM.

The values above are taken from article PMC3893231 (mAbs, 2013).
